B1: IgG 15036 (antibody, V domains shown)
VH: EVQLVESGGGLVQPGGSLRLSCAASGFDFTAYDIHWVRQAPGKGLEWVAGISASGGYTAYADSVKGRFTISADTSKNTAYLQMNSLRAEDTAVYYCARDGFHSYALDYWGQGTLVTVSS
VL: DIQMTQSPSSLSASVGDRVTITCRASQSVSSAVAWYQQKPGKAPKLLIYSASSLYSGVPSRFSGSRSGTDFTLTISSLQPEDFATYYCQQWYSLFTFGQGTKVEIK
B2: IgG 15046 (antibody, V domains shown)
VH: EVQLVESGGGLVQPGGSLRLSCAASGFDFGSYAMHWVRQAPGKGLEWVAGIYASGGYTDYADSVKGRFTISADTSKNTAYLQMNSLRAEDTAVYYCARGWSYYWGFDYWGQGTLVTVSS
VL: DIQMTQSPSSLSASVGDRVTITCRASQSVSSAVAWYQQKPGKAPKLLIYSASSLYSGVPSRFSGSRSGTDFTLTISSLQPEDFATYYCQQYDYGLFTFGQGTKVEIK

Legend:
[1] = biological target: T1, Trimeric SARS-CoV-2 S-protein (SARS-CoV-2 (P0DTC2 reference)); strain …, UniProt P0DTC2, biotin (site-specific, BirA, on the AviTag)); test: BLI
[2] = biological target: T1, Trimeric SARS-CoV-2 S-protein; test: ELISA

| Binder | Kd [1] [nM] | EC50 [2] [nM] |
| --- | --- | --- |
| B1 | 0.1 ± 0.1 | 0.5 ± 0.1 |
| B2 | 2.3 ± 0.6 | 1.3 ± 0.3 |
